# Where a SMILES comes first, the peptide text is derived from it. [ ]: non-standard residue; d: D form.
# How the values were obtained:
# Experiment in all cases: ELISA-based competitive binding assay with purified PKC isoform
# PKC-βII = PKC-βII (Homo sapiens, UniProt P05771); design: key to Affinity for PKC isoform βII: —: no detectable affinity; Low to very low affinity at 10X or 20X or both PRE concentrations in at least one cell line in the cell extract assay; Low affinity in purified isoform assay.; Moderate affinity at 10X or 20X or both PRE concentrations in at least one cell line in the cell extract assay.; High affinity at 10X or 20X or both PRE concentrations in at least one cell line in the cell extract assay; High affinity in purified isoform assay; details: for Affinity for PKC isoform βII: Purified isoform
# Experimental: (§1) Peptides PRE 1, 2, 3, 4, 5, 6, 7, 8, 9, 10, 11, 12 and 13 (see Table 3) were tested for their ability to interfere with binding of PKC isoform-specific antibodies to their target PKC isoforms using a competitive binding assay and purified PKC isoforms.
# (§2) Procedure: Competitive binding was assessed using a 96 well plate ELISA-based assay as described below.
# (§3) Greiner 96 well ELISA plates were coated with the appropriate PKC isoform diluted in PBSN (PBS with Calcium/Magnesium+0.05% Sodium azide w/w). 50 μL/well at 250 ng/mL was used. Control wells contained PBSN only. Plates were incubated overnight at 4° C.
# (§4) The plates were washed 3 times with 200 μL of dH2O per well, then 100 μL of blocking solution was added per well and the plate incubated for 1 h at 37° C. The washing steps with dH2O were repeated and 50 μL of the appropriate PRE solution (PRE stock solution [20 mM in DMSO] diluted in PBSN) was added and the plate incubated for 1 h at room temperature.
# (§5) After incubation, 5 μL of 1.1:400 anti-PKC (isoform specific antibody) was added per well (to provide a final concentration of 1:4000). For PKC-epsilon, 1.1:800 dilution was used and for PKC-zeta a 1.1:100 dilution was used due to high and low binding affinity, respectively. The plates were then incubated 1 h at room temperature, followed by washing with dH2O as described above.
# (§6) 50 μL of 1:1000 dilution of Alkaline Phosphatase (AP) conjugated antibody (anti-rabbit for all except zeta, which was anti-goat) was then added and the plate incubated for 1 h at room temperature. Washing with dH2O was then repeated. Finally, 100 μL of pNPP solution in pNPP buffer (2 mM MgCl2, 100 mM Sodium bicarbonate in water, pH 9.8) was added to all wells and incubated for 8 minutes for α, βI, βII ε, and ζ, or for 15-20 mins for δ (until sufficient coloration is observed). The reaction was stopped by addition of Stop solution (2N NaOH) and the absorbance at 405 nm was read on a Galaxy Plate reader.
# (§7) Controls were PKC without PRE; blank controls, and controls containing the final concentrations of DMSO used for solubilizing the PREs. The non-specific binding capacity related to DMSO was also measured.
# (§8) The antibodies used were as follows: anti-PKC α (Cat. No. SC-208); anti-PKC βI (Cat. No. SC-209); anti-PKC βII (Cat. No. SC-210); anti-PKC δ (Cat. No. SC-213); anti-PKC ε (Cat. No. SC-214); anti-PKC ζ (Cat. No. SC-216-G) (all from Santa Cruz Biotechnology, Inc.). The AP-conjugated antibodies were obtained from Jackson Immuno Research Laboratories (West Grove, Pa.).
# (§9) Calculations: The OD values measured at 405 nm represent the free PKC coated per well.
# (§10) OD405 PKC alone−Blank OD405 of each sample=OD405 coated isoform
# (§11) (OD405 of sample X/OD405 coated isoform)×100=% n that represents the percentage of X binding compared to control.
# (§12) 100-% n measures the relative binding capacity of X towards the tested isoform.
# (§13) The apparent binding capacity of the DMSO samples was then subtracted from X binding capacity.
# (§14) All measurements were made in triplicate and the values in the table represent the averaged calculated binding capacity values after subtraction of the DMSO apparent binding capacity (averaged from 12 values, respectively 10.80, 11.20 and 16.40 corresponding to the concentrations of DMSO used to dilute the […] at 200, 100 and 50 μM respectively). The results allow for quantitative comparison of the binding capacity of each PRE towards an individual isoform within each table, but not among isoforms due to differences in sensitivity of the specific antibodies toward the secondary antibody. This applies particularly to PKC-delta. As noted above, the colour development duration was increased 2-3 times and, as a result, the OD405 measurements may be overestimated for this isoform.
# PKC-ζ = biological target: T1, PKC-ζ (Homo sapiens, UniProt Q05513); design: key to Affinity for PKC isoform ζ: —: no detectable affinity; Low to very low affinity at 10X or 20X or both PRE concentrations in at least one cell line in the cell extract assay; Low affinity in purified isoform assay.; Moderate affinity at 10X or 20X or both PRE concentrations in at least one cell line in the cell extract assay.; High affinity at 10X or 20X or both PRE concentrations in at least one cell line in the cell extract assay; High affinity in purified isoform assay; details: for Affinity for PKC isoform ζ: Purified isoform
# T1 sequence (Q05513 1-592): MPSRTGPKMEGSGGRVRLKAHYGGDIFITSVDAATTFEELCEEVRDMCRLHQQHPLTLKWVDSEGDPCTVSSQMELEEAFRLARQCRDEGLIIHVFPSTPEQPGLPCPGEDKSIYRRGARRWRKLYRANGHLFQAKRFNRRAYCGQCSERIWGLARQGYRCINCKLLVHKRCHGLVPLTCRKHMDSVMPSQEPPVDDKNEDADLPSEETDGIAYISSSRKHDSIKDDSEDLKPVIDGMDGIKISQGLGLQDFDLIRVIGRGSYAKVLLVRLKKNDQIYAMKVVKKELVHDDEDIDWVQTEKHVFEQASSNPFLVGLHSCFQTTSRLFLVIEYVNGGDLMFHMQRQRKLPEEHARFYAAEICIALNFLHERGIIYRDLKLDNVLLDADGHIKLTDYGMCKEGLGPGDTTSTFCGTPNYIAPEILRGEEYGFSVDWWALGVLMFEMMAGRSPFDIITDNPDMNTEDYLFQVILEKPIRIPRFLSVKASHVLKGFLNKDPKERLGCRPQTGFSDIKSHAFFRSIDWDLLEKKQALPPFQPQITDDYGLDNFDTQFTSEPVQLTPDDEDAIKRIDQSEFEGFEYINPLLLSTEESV
# Experimental: as §1, §2, §3, §4, §5, §6, §7, §8, §9, §10, §11, §12, §13, §14
# PKC-βI = PKC-βI (Homo sapiens, UniProt P05771); design: key to Affinity for PKC isoform βI: —: no detectable affinity; Low to very low affinity at 10X or 20X or both PRE concentrations in at least one cell line in the cell extract assay; Low affinity in purified isoform assay.; Moderate affinity at 10X or 20X or both PRE concentrations in at least one cell line in the cell extract assay.; High affinity at 10X or 20X or both PRE concentrations in at least one cell line in the cell extract assay; High affinity in purified isoform assay; details: for Affinity for PKC isoform βI: Purified isoform
# Experimental: as §1, §2, §3, §4, §5, §6, §7, §8, §9, §10, §11, §12, §13, §14
# [1] = PRE 50 μM, purified PKC-βII, read-out: calculated binding capacity (100-% n, DMSO apparent binding subtracted)
# [2] = PRE 100 μM, purified PKC-βII, read-out: calculated binding capacity (100-% n, DMSO apparent binding subtracted)
# [3] = PRE 50 μM, purified PKC-ζ, read-out: calculated binding capacity (100-% n, DMSO apparent binding subtracted)
# [4] = PRE 100 μM, purified PKC-ζ, read-out: calculated binding capacity (100-% n, DMSO apparent binding subtracted)
# Sequence of PKC-βII (P05771 1-673 isoform P05771-2): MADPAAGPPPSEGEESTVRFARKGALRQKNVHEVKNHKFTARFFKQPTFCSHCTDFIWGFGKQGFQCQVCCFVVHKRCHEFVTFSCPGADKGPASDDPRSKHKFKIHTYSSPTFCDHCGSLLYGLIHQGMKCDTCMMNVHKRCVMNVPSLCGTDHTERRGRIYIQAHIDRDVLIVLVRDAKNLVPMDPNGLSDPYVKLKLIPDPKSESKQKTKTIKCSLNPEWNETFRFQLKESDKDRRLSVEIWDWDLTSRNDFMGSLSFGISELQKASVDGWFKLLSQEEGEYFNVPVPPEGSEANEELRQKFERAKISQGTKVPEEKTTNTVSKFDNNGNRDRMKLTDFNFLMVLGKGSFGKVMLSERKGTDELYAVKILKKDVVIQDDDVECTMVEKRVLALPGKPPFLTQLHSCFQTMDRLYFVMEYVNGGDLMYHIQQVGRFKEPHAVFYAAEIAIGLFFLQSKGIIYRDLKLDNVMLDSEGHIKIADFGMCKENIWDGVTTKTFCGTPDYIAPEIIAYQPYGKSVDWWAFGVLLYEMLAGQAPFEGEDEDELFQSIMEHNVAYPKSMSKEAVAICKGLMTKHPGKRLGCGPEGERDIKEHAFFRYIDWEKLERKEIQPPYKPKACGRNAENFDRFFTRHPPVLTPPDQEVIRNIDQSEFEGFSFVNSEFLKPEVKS
# Sequence of PKC-βI (P05771 whole entry, canonical isoform): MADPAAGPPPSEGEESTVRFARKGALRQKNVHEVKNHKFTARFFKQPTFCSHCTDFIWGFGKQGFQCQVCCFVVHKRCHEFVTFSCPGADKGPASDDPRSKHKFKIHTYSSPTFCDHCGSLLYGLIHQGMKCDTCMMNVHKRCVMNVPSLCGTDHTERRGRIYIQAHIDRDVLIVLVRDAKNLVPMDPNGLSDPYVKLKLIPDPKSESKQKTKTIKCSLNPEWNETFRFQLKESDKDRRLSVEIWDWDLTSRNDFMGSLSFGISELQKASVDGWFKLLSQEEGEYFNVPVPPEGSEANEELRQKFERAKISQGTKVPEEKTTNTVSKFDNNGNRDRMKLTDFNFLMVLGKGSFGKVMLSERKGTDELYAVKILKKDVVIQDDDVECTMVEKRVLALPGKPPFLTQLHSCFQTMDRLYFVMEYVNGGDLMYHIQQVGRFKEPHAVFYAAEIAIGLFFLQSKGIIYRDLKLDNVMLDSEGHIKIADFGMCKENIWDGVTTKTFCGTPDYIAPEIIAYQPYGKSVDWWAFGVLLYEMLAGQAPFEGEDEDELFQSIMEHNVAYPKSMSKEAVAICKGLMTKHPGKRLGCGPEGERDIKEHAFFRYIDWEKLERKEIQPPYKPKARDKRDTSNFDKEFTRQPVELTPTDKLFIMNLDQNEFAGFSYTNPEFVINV
Molecule,Affinity for PKC isoform βII (PKC-βII),Affinity for PKC isoform ζ (PKC-ζ),Affinity for PKC isoform βI (PKC-βI),further results
CC[C@H](C)[C@H](NC(=O)[C@H](CO)NC(=O)[C@@H](NC(=O)CNC(=O)[C@@H](NC(=O)[C@H](CC(C)C)NC(=O)[C@H](CC(N)=O)NC(=O)[C@H](CCC(N)=O)NC(=O)[C@H](C)NC(=O)[C@H](CC(=O)O)NC(=O)CNC(=O)CNC(=O)[C@H](CCCCN)NC(=O)[C@@H](NC(=O)[C@H](CCC(=O)O)NC(=O)[C@H](CCC(N)=O)NC(=O)[C@@H](NC(=O)CNC(=O)[C@H](CCCCN)NC(=O)[C@H](C)NC(C)=O)[C@@H](C)CC)C(C)C)[C@@H](C)CC)[C@@H](C)CC)C(N)=O [PRE 3] (Ac-AKGIQEVKGGDAQNLIGISI-NH2),—,H,H,inhibition at 50 µM (PKC-βII; [1]): 0%; inhibition at 100 µM (PKC-βII; [2]): 0%
"CC[C@H](C)[C@H](NC(=O)[C@H](CO)NC(=O)[C@@H](NC(=O)CNC(=O)[C@@H](NC(=O)[C@H](CC(C)C)NC(=O)[C@H](CC(N)=O)NC(=O)[C@H](CCC(N)=O)NC(=O)[C@H](C)NC(=O)[C@H](CC(=O)O)NC(=O)[C@H](CCCCN)NC(C)=O)[C@@H](C)CC)[C@@H](C)CC)C(N)=O [PRE 4, Ac-KDAQNLIGISI-NH2] (Ac-KDAQNLIGISI-NH2)",L,—,L,inhibition at 50 µM (PKC-ζ; [3]): 0%; inhibition at 100 µM (PKC-ζ; [4]): 0%
CC[C@H](C)[C@H](NC(=O)[C@H](CO)NC(=O)[C@@H](NC(=O)CNC(=O)[C@@H](NC(=O)[C@H](CC(C)C)NC(=O)[C@H](CC(N)=O)NC(=O)[C@H](CCC(N)=O)NC(=O)[C@H](C)NC(=O)[C@H](CC(=O)O)NC(=O)[C@H](CCCCN)NC(=O)CNC(=O)CNC(=O)[C@H](CCCCN)NC(=O)[C@@H](NC(=O)[C@H](CCC(=O)O)NC(=O)[C@H](CCC(N)=O)NC(=O)[C@@H](NC(=O)CNC(=O)[C@H](CCCCN)NC(=O)[C@H](C)NC(C)=O)[C@@H](C)CC)C(C)C)[C@@H](C)CC)[C@@H](C)CC)C(N)=O [PRE 5] (Ac-AKGIQEVKGGKDAQNLIGISI-NH2),—,—,—,"inhibition at 50 µM (PKC-βII; [1]): 0%; inhibition at 100 µM (PKC-βII; [2]): 0%; inhibition at 200 µM (PKC-βII; PRE 200 μM, purified PKC-βII, read-out: calculated binding capacity (100-% n, DMSO apparent binding subtracted)): 0%; inhibition at 50 µM (PKC-ζ; [3]): 0%; inhibition at 100 µM (PKC-ζ; [4]): 0%; inhibition at 200 µM (PKC-ζ; PRE 200 μM, purified PKC-ζ, read-out: calculated binding capacity (100-% n, DMSO apparent binding subtracted)): 0%; inhibition at 50 µM (PKC-βI; PRE 50 μM, purified PKC-βI, read-out: calculated binding capacity (100-% n, DMSO apparent binding subtracted)): 0%; inhibition at 100 µM (PKC-βI; PRE 100 μM, purified PKC-βI, read-out: calculated binding capacity (100-% n, DMSO apparent binding subtracted)): 0%; inhibition at 200 µM (PKC-βI; PRE 200 μM, purified PKC-βI, read-out: calculated binding capacity (100-% n, DMSO apparent binding subtracted)): 0%"
Ac-ISIGILNQADK-NH2 [PRE 10],L,—,—,
Ac-ISIGILQNADK-NH2 (not fully specified; printed as Ac-ISIGILQNADK-NH2) [PRE 7],—,—,—,"calculated binding capacity (100-% n, DMSO apparent binding subtracted) (PKC-ζ; PRE 50 μM, purified PKC-ζ): 1.83%; calculated binding capacity (100-% n, DMSO apparent binding subtracted) (PKC-ζ; PRE 200 μM, purified PKC-ζ): 1.54%; calculated binding capacity (100-% n, DMSO apparent binding subtracted) (PKC-βI; PRE 50 μM, purified PKC-βI): 2.10%"
Ac-KDANQLIGISI-NH2 [PRE 6],—,—,L,
Ac-KDAQNLI-NH2 [PRE 12],—,—,—,"calculated binding capacity (100-% n, DMSO apparent binding subtracted) (PKC-ζ; PRE 50 μM, purified PKC-ζ): 4.20%; calculated binding capacity (100-% n, DMSO apparent binding subtracted) (PKC-ζ; PRE 100 μM, purified PKC-ζ): 8.77%; calculated binding capacity (100-% n, DMSO apparent binding subtracted) (PKC-ζ; PRE 200 μM, purified PKC-ζ): 0.33%"
Ac-RDAQNLI-NH2 [PRE 13],—,—,—,"calculated binding capacity (100-% n, DMSO apparent binding subtracted) (PKC-ζ; PRE 200 μM, purified PKC-ζ): 4.29%"
Ac-RDAQNLIGISI-NH2 [PRE 11],—,—,—,
Ac-isigilqnadk-NH2 (Ac-[dI][dS][dI]G[dI][dL][dQ][dN][dA][dD][dK]-NH2; SMILES CC[C@@H](C)[C@@H](NC(C)=O)C(=O)N[C@H](CO)C(=O)N[C@@H](C(=O)NCC(=O)N[C@@H](C(=O)N[C@H](CC(C)C)C(=O)N[C@H](CCC(N)=O)C(=O)N[C@H](CC(N)=O)C(=O)N[C@H](C)C(=O)N[C@H](CC(=O)O)C(=O)N[C@H](CCCCN)C(N)=O)[C@H](C)CC)[C@H](C)CC) [PRE 9],H,—,L,"calculated binding capacity (100-% n, DMSO apparent binding subtracted) (PKC-βII; PRE 50 μM, purified PKC-βII): 8.14%; calculated binding capacity (100-% n, DMSO apparent binding subtracted) (PKC-βII; PRE 100 μM, purified PKC-βII): 0.3%; calculated binding capacity (100-% n, DMSO apparent binding subtracted) (PKC-βI; PRE 50 μM, purified PKC-βI): 11.53%; calculated binding capacity (100-% n, DMSO apparent binding subtracted) (PKC-βI; PRE 100 μM, purified PKC-βI): 8.82%; calculated binding capacity (100-% n, DMSO apparent binding subtracted) (PKC-βI; PRE 200 μM, purified PKC-βI): 5.72%"
ILEDKGGDAQNLIGISI [PRE 8],—,—,—,

# — US20110039770A1, “INHIBITORS OF PROTEIN KINASE C ISOFORMS AND USES THEREOF” (PHARMAGAP INC., priority 2005, published 2011)
